Data reported in patent publication US20110064726A1 (published 2011).

Experiments:
cynomolgus monkey IgE [1] = target: T1, cynomolgus monkey IgE (cynomolgus monkey); assay: capture ELISA, antibody coated; Test 2, Cyno 6 serum
T1 construct: serum was used as the source of IgE; also called cynomolgus IgE; cyno IgE
Procedure: (§1) Wells were washed once with 150 μL/well wash buffer (0.05% Tween-20, Sigma, Cat. No. P7949/TBS) then blocked with 150 μL/well 1% BSA (Sigma, Cat. No. A7030) in TBS for 2 hours at room temperature. Wells were washed twice with 150 μL wash buffer. 50 μL human (in-house donors) or cynomolgus serum (Harlan Sera-Lab Ltd, Loughborough) was added from neat to at least 1:16 dilution in 1% BSA/0.05% Tween-20/TBS diluent buffer. […] Wells were incubated for 2 hours at 25° C. before washing (3×150 μLwash buffer). […] Wells were incubated for 1 hour at 25° C. then washed (3×150 μL wash buffer). Streptavidin-HRP (Amersham Bioscience, Cat. No. RPN 1231) diluted 1:1000 in diluent buffer was added to all wells and incubated for 45 minutes at room temperature. Wells were washed (3×150 μL wash buffer). […] OPD (Dako, Cat. No. S2045) was added to all wells and the color allowed to develop for 10 minutes before stopping the reaction with 50 μl 0.6M H₂SO₄ and the absorbance measured at 490 nm.

[2] = target: T2, human IgE (full length human immunoglobulin E) (human, UniProt P01854 1-546); assay: serum free IgE depletion ELISA; DIN 0649, initial free IgE 93 ng/mL
cynomolgus monkey IgE [3] = target: T1, cynomolgus monkey IgE; assay: capture ELISA, antibody coated; Test 2, Cyno 4 serum
Procedure: as §1

[4] = target: T2, human IgE (full length human …); assay: serum free IgE depletion ELISA; DIN 0321 experiment 2, initial free IgE 265 ng/mL
cynomolgus monkey IgE [5] = target: T1, cynomolgus monkey IgE; assay: capture ELISA, antibody coated; Test 2, Cyno 8 serum
Procedure: as §1

[6] = target: T2, human IgE (full length human …); assay: serum free IgE depletion ELISA; DIN 0011 experiment 2, initial free IgE 326 ng/mL
[7] = target: T2, human IgE (full length human …); assay: serum free IgE depletion ELISA; DIN 0591, initial free IgE 152 ng/mL
[8] = target: T2, human IgE (full length human …); assay: serum free IgE depletion ELISA; DIN 0347, initial free IgE 221 ng/mL
cynomolgus monkey IgE [9] = target: T1, cynomolgus monkey IgE; assay: capture ELISA, antibody coated; Test 2, Cyno 5 serum
Procedure: as §1

cynomolgus monkey IgE [10] = target: T1, cynomolgus monkey IgE; assay: capture ELISA, antibody coated; Test 2, Cyno 7 serum
Procedure: as §1

cynomolgus monkey IgE [11] = target: T1, cynomolgus monkey IgE; assay: capture ELISA, antibody coated; Test 2, Cyno 3 serum
Procedure: as §1

[12] = target: T2, human IgE (full length human …); assay: serum free IgE depletion ELISA; DIN 0155, initial free IgE 93 ng/mL
cynomolgus monkey IgE [13] = target: T1, cynomolgus monkey IgE; assay: capture ELISA, antibody coated; Test 2, Cyno 2 serum
Procedure: as §1

cynomolgus monkey IgE [14] = target: T1, cynomolgus monkey IgE; assay: capture ELISA, antibody coated; Test 2, Cyno 1 serum
Procedure: as §1

[15] = target: T2, human IgE (full length human …); assay: serum free IgE depletion ELISA; DIN 0461, initial free IgE 80 ng/mL
[16] = target: T2, human IgE (full length human …); assay: serum free IgE depletion ELISA; DIN 0623 experiment 2, initial free IgE 133 ng/mL
human IgG3 = target: T3, human IgG3 (human, UniProt P01860-1 1-377); assay: ELISA, immunoglobulin coated at 4 µg/mL, anti-human IgG2 detection
T3 construct: bought preparation coated on the ELISA plate; not shown: bought immunoglobulin, light chain not described
Procedure: (§2) Wells were washed 3× with 150 μL wash buffer (0.05% Tween-20 (Sigma, Cat. No. P7949)/PBS) then blocked with 150 μL/well blocking buffer (2.5% BSA (Sigma, Cat. No. A7030)/PBS) for 2 hours at room temperature. Wells were washed 3× with 150 μL wash buffer/well. […] Antibodies were diluted in diluent buffer (PBS/1% BSA/0.05% Tween-20) and this was added to blank control wells (duplicate wells for each secondary antibody used). Antibodies were incubated for 2 hours at room temperature. Wells were washed 3× with 150 μL wash buffer/well. Binding of control antibodies to immunoglobulin was detected with anti-mouse IgG-HRP conjugate (Sigma, Cat. No. A4416) diluted 1:8000 in diluent buffer. 50 μL/well was added to control antibody and blank wells. Wells were incubated for 1 hour at room temperature, then washed 3× with 150 μL wash buffer/well. 50 μl OPD (Dako, Cat. No. […] Wells were incubated for 1 hour at room temperature then washed 3× with 150 μL wash buffer/well. Streptavidin-HRP (Amersham Bioscience, Cat. No. RPN 1231) diluted 1:2000 in diluent buffer was added to all wells and incubated for 45 minutes at room temperature. Wells were washed (3×150 μL wash buffer).

human IgG1 = target: T4, human IgG1 (human, UniProt P01857-1 1-330 = IgG part); assay: as above
T4 construct: bought preparation coated on the ELISA plate; not shown: bought immunoglobulin, light chain not described
Procedure: as §2

human IgA = target: T5, human IgA (human); assay: as above
T5 construct: bought preparation coated on the ELISA plate
Procedure: as §2

[17] = target: T2, human IgE (full length human …); assay: as above
Procedure: as §2

[18] = target: T2, human IgE (full length human …); assay: serum free IgE depletion ELISA; DIN 0632 experiment 2, initial free IgE 289 ng/mL
[19] = target: T2, human IgE (full length human …); assay: serum free IgE depletion ELISA; DIN 0451 experiment 2, initial free IgE 534 ng/mL
cynomolgus monkey IgE [20] = target: T1, cynomolgus monkey IgE; assay: capture ELISA, antibody coated; Test 1, Cyno 4 serum
Procedure: as §1

cynomolgus monkey IgE [21] = target: T1, cynomolgus monkey IgE; assay: capture ELISA, antibody coated; Test 1, Cyno 1 serum
Procedure: as §1

cynomolgus monkey IgE [22] = target: T1, cynomolgus monkey IgE; assay: capture ELISA, antibody coated; Test 1, Cyno 6 serum
Procedure: as §1

cynomolgus monkey IgE [23] = target: T1, cynomolgus monkey IgE; assay: capture ELISA, antibody coated; Test 1, Cyno 7 serum
Procedure: as §1

cynomolgus monkey IgE [24] = target: T1, cynomolgus monkey IgE; assay: capture ELISA, antibody coated; Test 1, Cyno 2 serum
Procedure: as §1

cynomolgus monkey IgE [25] = target: T1, cynomolgus monkey IgE; assay: capture ELISA, antibody coated; Test 1, Cyno 5 serum
Procedure: as §1

cynomolgus monkey IgE [26] = target: T1, cynomolgus monkey IgE; assay: capture ELISA, antibody coated; Test 1, Cyno 3 serum
Procedure: as §1

T2 sequence (P01854 whole entry): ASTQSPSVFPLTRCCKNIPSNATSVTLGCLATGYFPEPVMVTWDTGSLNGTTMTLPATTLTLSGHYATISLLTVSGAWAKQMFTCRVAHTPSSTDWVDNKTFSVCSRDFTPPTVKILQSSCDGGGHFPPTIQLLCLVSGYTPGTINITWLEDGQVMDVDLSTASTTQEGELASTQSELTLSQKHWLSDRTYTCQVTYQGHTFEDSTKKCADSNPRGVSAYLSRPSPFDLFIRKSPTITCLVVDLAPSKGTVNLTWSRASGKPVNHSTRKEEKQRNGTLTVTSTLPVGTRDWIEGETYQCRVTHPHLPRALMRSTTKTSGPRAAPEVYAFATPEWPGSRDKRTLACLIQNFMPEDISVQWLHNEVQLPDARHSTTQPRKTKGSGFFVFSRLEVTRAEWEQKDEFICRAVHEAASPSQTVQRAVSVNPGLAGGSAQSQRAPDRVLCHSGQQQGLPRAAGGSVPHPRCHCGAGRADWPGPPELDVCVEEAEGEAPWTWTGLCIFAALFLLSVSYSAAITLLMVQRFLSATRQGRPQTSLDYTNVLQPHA
T3 sequence (P01860 other isoform, or with tags, fused parts or gaps): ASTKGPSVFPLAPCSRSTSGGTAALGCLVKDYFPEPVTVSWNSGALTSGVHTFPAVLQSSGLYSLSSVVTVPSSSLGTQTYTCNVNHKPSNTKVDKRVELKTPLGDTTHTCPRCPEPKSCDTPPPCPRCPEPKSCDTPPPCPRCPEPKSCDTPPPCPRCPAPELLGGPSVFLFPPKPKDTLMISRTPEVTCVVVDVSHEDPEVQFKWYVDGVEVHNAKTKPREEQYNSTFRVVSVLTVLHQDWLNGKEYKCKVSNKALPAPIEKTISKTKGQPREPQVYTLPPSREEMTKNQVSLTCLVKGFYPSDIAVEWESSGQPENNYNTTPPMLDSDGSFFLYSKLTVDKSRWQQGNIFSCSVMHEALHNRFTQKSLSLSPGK
T4 sequence (P01857 other isoform, or with tags, fused parts or gaps): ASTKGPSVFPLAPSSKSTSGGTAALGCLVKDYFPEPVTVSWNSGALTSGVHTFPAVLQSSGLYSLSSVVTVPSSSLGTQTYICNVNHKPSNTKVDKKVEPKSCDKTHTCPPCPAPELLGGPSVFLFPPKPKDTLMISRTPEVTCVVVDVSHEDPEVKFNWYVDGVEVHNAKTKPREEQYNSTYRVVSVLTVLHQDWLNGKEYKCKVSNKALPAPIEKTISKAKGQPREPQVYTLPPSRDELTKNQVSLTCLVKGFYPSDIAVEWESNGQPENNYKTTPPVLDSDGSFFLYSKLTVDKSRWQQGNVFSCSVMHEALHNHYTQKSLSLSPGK

| IgE concentration detected (cynomolgus monkey IgE [1]) | IgE concentration detected (cynomolgus monkey IgE [3]) | IgE concentration detected (cynomolgus monkey IgE [5]) | IgE concentration detected (cynomolgus monkey IgE [9]) | IgE concentration detected (cynomolgus monkey IgE [10]) | IgE concentration detected (cynomolgus monkey IgE [11]) | IgE concentration detected (cynomolgus monkey IgE [13]) | IgE concentration detected (cynomolgus monkey IgE [14]) | A290 nm (human IgG3) | A290 nm (human IgG1) | A290 nm (human IgA) | IgE concentration detected (cynomolgus monkey IgE [20]) | IgE concentration detected (cynomolgus monkey IgE [21]) | IgE concentration detected (cynomolgus monkey IgE [22]) | IgE concentration detected (cynomolgus monkey IgE [23]) | IgE concentration detected (cynomolgus monkey IgE [24]) | IgE concentration detected (cynomolgus monkey IgE [25]) | IgE concentration detected (cynomolgus monkey IgE [26]) | Binder | also measured |
| --- | --- | --- | --- | --- | --- | --- | --- | --- | --- | --- | --- | --- | --- | --- | --- | --- | --- | --- | --- |
| – | – | – | – | – | – | – | – | 0.05 absorbance | 0.07 absorbance | 0.04 absorbance | 0 ng/mL | 30 ng/mL | 3 ng/mL | 0 ng/mL | 0 ng/mL | 37 ng/mL | – | recombinant 5.396.1 (antibody, human IgG2, kappa, V domains shown, human IgG2 kappa, expressed in 293 Freestyle cells; also called 5.396.1 (recombinant)) VH: QVQLQQWGAGLLKPSETLSLTCAVYGGSFSGYYWSWIRQPPGKGLEWIGEIHHSGSTNYNPSLKSRVTISVDTSKNQFSLKLSSVTAADTAVYYCARDNWNDSFYYYYGMDVWGQGTTVTVSS VL: DIQMTQSPSSLSASVGDRVTITCRASQGISNHLAWFQQKPGKAPKSLIYAASSLQSGVPSKFSGSGSGTDFTLTISSLQPEDFATYYCQQYNRHPFTFGPGTKVDIKR | – |
| – | – | – | – | – | – | – | – | 0.05 absorbance | 0.07 absorbance | 0.04 absorbance | 0 ng/mL | 120 ng/mL | 0 ng/mL | 0 ng/mL | 91 ng/mL | 140 ng/mL | 107 ng/mL | recombinant 6.605.1 (antibody, human IgG2, kappa, V domains shown, human IgG2 kappa; also called 6.605.1 (recombinant)) VH: QVHLVQSGAEVKMPGASVKVSCKASGYTFTSYGISWVRQAPGQGLEWMGWISAYNGNTNYAQKLQGRITMTTDTSTSTAYMDLRSLRSDDTAVYYCARDGDYYDPFDYWGQGTLVTVSS VL: DIQMTQSPSSLSASVGDRVTITCRTSQSISNWLNWYQQKPGKAPKLLIYGASTLKSGVPSRFSGSESGTDFTLTISSLQPEDFATYYCQQSYSTPPTFGQGTKVEIKR | – |

Second part, the binder before the results:

| Binder | IgE concentration detected (cynomolgus monkey IgE [1]) | IgE concentration detected (cynomolgus monkey IgE [3]) | IgE concentration detected (cynomolgus monkey IgE [5]) | IgE concentration detected (cynomolgus monkey IgE [9]) | IgE concentration detected (cynomolgus monkey IgE [10]) | IgE concentration detected (cynomolgus monkey IgE [11]) | IgE concentration detected (cynomolgus monkey IgE [13]) | IgE concentration detected (cynomolgus monkey IgE [14]) | A290 nm (human IgG3) | A290 nm (human IgG1) | A290 nm (human IgA) | IgE concentration detected (cynomolgus monkey IgE [20]) | IgE concentration detected (cynomolgus monkey IgE [21]) | IgE concentration detected (cynomolgus monkey IgE [22]) | IgE concentration detected (cynomolgus monkey IgE [23]) | IgE concentration detected (cynomolgus monkey IgE [24]) | IgE concentration detected (cynomolgus monkey IgE [25]) | IgE concentration detected (cynomolgus monkey IgE [26]) | also measured |
| --- | --- | --- | --- | --- | --- | --- | --- | --- | --- | --- | --- | --- | --- | --- | --- | --- | --- | --- | --- |
| 5.948.1 Hc-H100Y (antibody, human IgG2, kappa, V domains shown, human IgG2 kappa; the heavy chain entry already holds H100Y; also called 5.948.1 H100Y; 5.948.1 (H100Y)) VH: QVQLVQSGAEVKKPGASVKVSCKASGYTFTSYDINWVRQATGQGLEWMGWMDPNSGNTGYAQKFQGRVTMTRNTSISTAYMELSSLRSEDTAVYYCARGYYDSDGYYSFSGMDVWGQGTTVTVSS VL: not shown | 39 ng/mL | 25 ng/mL | 36 ng/mL | 420 ng/mL | 0 ng/mL | 178 ng/mL | 199 ng/mL | 170 ng/mL | 0.06 absorbance | 0.06 absorbance | 0.05 absorbance | – | – | – | – | – | – | – | IC25ng/mL [2]: 0.39 µg/mL; IC25ng/mL [4]: 2.55 µg/mL; IC25ng/mL [6]: 2.96 µg/mL; IC25ng/mL [7]: 0.55 µg/mL; IC25ng/mL [8]: 1.33 µg/mL; IC25ng/mL [12]: 0.34 µg/mL; IC25ng/mL [15]: 0.34 µg/mL; IC25ng/mL [16]: 0.76 µg/mL; A290 nm [17]: 1.05 absorbance; IC25ng/mL [18]: 2.29 µg/mL; IC25ng/mL [19]: 10.5 µg/mL |
| 5.396.1 Hc-S103N Lc-K61R (antibody, human IgG2, kappa, V domains shown, human IgG2 kappa; the entries already hold the substitutions S103N (Hc) and K61R (Lc); also called 5.396.1 (S103N/K61R); 5.396.1 N/R) VH: QVQLQQWGAGLLKPSETLSLTCAVYGGSFSGYYWSWIRQPPGKGLEWIGEIHHSGSTNYNPSLKSRVTISVDTSKNQFSLKLSSVTAADTAVYYCARDNWNDNFYYYYGMDVWGQGTTVTVSS VL: DIQMTQSPSSLSASVGDRVTITCRASQGISNHLAWFQQKPGKAPKSLIYAASSLQSGVPSRFSGSGSGTDFTLTISSLQPEDFATYYCQQYNRHPFTFGPGTKVDIKR | 0 ng/mL | 0 ng/mL | 0 ng/mL | 102 ng/mL | 0 ng/mL | 53 ng/mL | 39 ng/mL | 57 ng/mL | 0.05 absorbance | 0.08 absorbance | 0.04 absorbance | 0 ng/mL | 41 ng/mL | 0 ng/mL | 0 ng/mL | 0 ng/mL | 57 ng/mL | 39 ng/mL | – |
| 6.605.1 Hc-H3Q,M13K,D82E Lc-T25A,T53S (antibody, human IgG2, kappa, V domains shown, human IgG2 kappa; the entries already hold the substitutions; also called 6.605.1 (H3Q,M13K,D82E-T25A,T53S); 6.605.1 QKE/AS) VH: QVQLVQSGAEVKKPGASVKVSCKASGYTFTSYGISWVRQAPGQGLEWMGWISAYNGNTNYAQKLQGRITMTTDTSTSTAYMELRSLRSDDTAVYYCARDGDYYDPFDYWGQGTLVTVSS VL: DIQMTQSPSSLSASVGDRVTITCRASQSISNWLNWYQQKPGKAPKLLIYGASSLKSGVPSRFSGSESGTDFTLTISSLQPEDFATYYCQQSYSTPPTFGQGTKVEIKR | – | – | – | – | – | – | – | – | 0.04 absorbance | 0.07 absorbance | 0.04 absorbance | 0 ng/mL | 133 ng/mL | – | 0 ng/mL | 103 ng/mL | 173 ng/mL | 122 ng/mL | – |
